Measured values from patent publication US20170097353A1 (University of California, published 2017).
Ends that are not written are not given here. * marks the point of attachment. Butanoyl(4-N3) = [N-]=[N+]=NCCCC(=O)*

Molecular target: T1, Prostate Specific Membrane Antigen (PSMA) on the surface of LNCaP / LNCaP CSS prostate cancer cells (human, UniProt Q04609 1-750, glycoprotein)
T1 construct: whole, on cells; Endogenous PSMA on LNCaP cells (derived from lymph node adenocarcinoma of the human prostate); Cells were glutaraldehyde-fixed on Maxisorp plates in the cell-based phage ELISA, or in suspension in the sandwich ELISA; also called cell surface PSMA
T1 sequence (Q04609 whole entry): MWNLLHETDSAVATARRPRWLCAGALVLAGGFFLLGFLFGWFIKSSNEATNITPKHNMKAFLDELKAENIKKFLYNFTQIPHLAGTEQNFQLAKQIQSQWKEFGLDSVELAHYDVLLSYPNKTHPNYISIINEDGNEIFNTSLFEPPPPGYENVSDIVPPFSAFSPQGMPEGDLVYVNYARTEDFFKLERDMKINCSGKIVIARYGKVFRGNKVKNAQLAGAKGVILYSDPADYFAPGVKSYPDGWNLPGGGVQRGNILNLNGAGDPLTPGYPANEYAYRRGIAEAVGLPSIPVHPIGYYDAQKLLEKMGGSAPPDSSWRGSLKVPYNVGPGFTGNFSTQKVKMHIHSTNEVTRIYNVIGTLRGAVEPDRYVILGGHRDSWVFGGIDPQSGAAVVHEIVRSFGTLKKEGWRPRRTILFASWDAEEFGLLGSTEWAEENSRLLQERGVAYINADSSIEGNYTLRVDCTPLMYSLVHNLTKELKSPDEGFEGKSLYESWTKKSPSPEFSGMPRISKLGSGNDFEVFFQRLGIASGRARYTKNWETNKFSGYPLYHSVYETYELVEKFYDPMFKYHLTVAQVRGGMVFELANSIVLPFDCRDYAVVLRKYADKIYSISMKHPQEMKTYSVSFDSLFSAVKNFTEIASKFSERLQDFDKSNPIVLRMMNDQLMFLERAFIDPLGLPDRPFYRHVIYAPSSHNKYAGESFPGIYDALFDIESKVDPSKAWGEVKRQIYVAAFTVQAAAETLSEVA
Assay: cell-based phage ELISA on LNCaP cells (FIG. 5A)

B1: P100SP-P4-2 on phage (PEG100, specific attachment, PEG4 linker, ligand 2; on M13 phage wrapped with K14-Cys) (peptide)
peptide: {Mal‑PEG100‑alkyne (triazole)-PEG4 linker}-SECVEVFQNSCDW-NH2
modifications: not fully specified; cysteine pairing not given here
notes: Multivalent display on M13 phage wrapped with K14-Cys
binding result: binds

B2: P100NSP-2 on phage (PEG100, non-specific attachment to ligand 2; bioconjugated to M13 phage wrapped with K14-Cys) (peptide)
peptide: {pentynoic acid-Butanoyl(4-N3)}-SECVEVFQNSCDW-NH2
modifications: not fully specified; cysteine pairing not given here; also: Mal-PEG100 coupled non-specifically (N-terminal or side-chain carboxylate)
notes: Multivalent display on M13 phage wrapped with K14-Cys; also called PEGylated ligand 2; peptide-2
binding result: binds

B3: P100NSP-P4-2 on phage (PEG100, non-specific attachment, PEG4 linker, ligand 2; on M13 phage wrapped with K14-Cys) (peptide)
peptide: {pentynoic acid-15‑azido‑4,7,10,13‑tetraoxapentadecanoic acid}-SECVEVFQNSCDW-NH2
modifications: not fully specified; cysteine pairing not given here; also: pentynoic acid clicked to azide (triazole), Mal-PEG100-NH2 HBTU-coupled non-specifically
notes: as for B1
binding result: binds

B4: P100SP-2 on phage (PEG100, specific attachment to ligand 2; bioconjugated to M13 phage wrapped with K14-Cys) (peptide)
peptide: SECVEVFQNSCDW-NH2
modifications: not fully specified (N-terminus); cysteine pairing not given here; also: Mal-PEG100-alkyne clicked (triazole) to azide at N-terminus
notes: as for B1
binding result: binds
